The experiment concerns the target T1, Leucine-rich repeat-containing protein 15 (LRRC15) on LRRC15-expressing cells (UniProt Q8TF66 22-581, limits assumed).
T1 construct: whole, on cells; also called leucine-rich repeat containing 15
T1 sequence (looked up): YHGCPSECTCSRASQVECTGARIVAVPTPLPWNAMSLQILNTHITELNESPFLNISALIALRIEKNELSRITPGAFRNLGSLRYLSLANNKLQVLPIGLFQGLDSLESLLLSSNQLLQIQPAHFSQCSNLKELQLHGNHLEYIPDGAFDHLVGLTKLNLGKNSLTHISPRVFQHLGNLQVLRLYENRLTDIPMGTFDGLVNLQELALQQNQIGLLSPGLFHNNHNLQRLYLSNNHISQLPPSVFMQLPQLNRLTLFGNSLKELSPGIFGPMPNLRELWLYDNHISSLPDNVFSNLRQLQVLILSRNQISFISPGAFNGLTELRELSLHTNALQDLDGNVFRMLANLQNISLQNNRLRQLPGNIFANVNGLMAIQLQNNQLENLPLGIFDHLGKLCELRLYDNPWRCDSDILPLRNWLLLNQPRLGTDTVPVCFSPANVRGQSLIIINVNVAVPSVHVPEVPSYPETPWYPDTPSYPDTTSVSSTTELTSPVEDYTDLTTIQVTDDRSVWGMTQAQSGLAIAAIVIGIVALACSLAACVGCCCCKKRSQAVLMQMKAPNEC
As to the kind of experiment: LigandTracer, radiolabeled antibody on live target cells. As to the method: DUNP 19 was developed by humanization of a hybridoma mAb generated from immunizing mice with stably transfected LRRC15-expressing 3T3 cells. […] Liquid chromatography-mass spectrometry (LC-MS) analysis of DUNP19 incubated with LRRC15-expressing cell lines confirmed molecular binding specificity. […] LigandTracer (Ridgeview Instruments) was utilized to assess binding interaction between live cells and Lutetium-177 labeled DUNP19 ([¹⁷⁷Lu]DUNP19). […] Internalization rate was studied by quantifying emitted fluorescence over time from SAOS2 cells incubated with pH-responsive dye-labeled DUNP19. Identification of colocalization of Alexa-488 labeled DUNP19 with intracellular markers (DAPI and LAMP1) in SAOS2 cells over time was applied to further confirm time of internalization.

B1: Lutetium-177 labeled DUNP19 ([177Lu]DUNP19) (antibody, V domains shown)
VH: QVQLVQSGAEVKKPGASVKVSCKASGYTFTDYYIHWVRQAPGQGLEWMGWINPNSDGTNYAQNFLGRVTMTRDTSISTAYMELSRLRSDDSAVYHCVREGRYSTSPFDYWGQGTLVTVSS
VL: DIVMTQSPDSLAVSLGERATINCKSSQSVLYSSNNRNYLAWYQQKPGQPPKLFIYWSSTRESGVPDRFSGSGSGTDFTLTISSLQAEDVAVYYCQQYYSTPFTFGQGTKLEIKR
notes: also called 177Lu-DOTA-DUNP19
B1: the affinity, expressed as Kd, was 329 pM. That is a sub-nanomolar value.

The record behind these values is US20230133775A1 (University of California, published 2023).
